Biological target: the molecule itself
Assay: X-ray crystal structure (self-association of subunits)
Experimental: The crystals were moved into 0.15M sodium citrate buffer (pH 5.6) containing 25% glycerol and 1.5M ammonium phosphate, and rapidly cooled to −173° C. by blowing nitrogen gas. The X-ray diffraction data of PtALD native crystals was collected using an X-ray diffractometer R-AXIS V++ (Rigaku Co., Ltd.) at the Photon Factory Beamline 6B of the High Energy Accelerator Research Organization (Tsukuba, Japan). The X-ray wavelength was fixed at 1.0 angstrom and the distance from the crystal to an imaging plate detector was 180 mm. Exposure time and an oscillation angle per one imaging plate frame were 120 sec and 0.8°, respectively, and the data for 150 frames was collected. In the crystallographic parameters, the space group was P6₃22, and the lattice constants were a=94.38 angstrom and c=111.49 angstrom. The asymmetric unit contains one aldolase molecule, and the water content of the crystal was 60%. The crystal was diffracted to approximately 1.5 angstrom resolution. The data processing was made with a program Crystal Clear (Rigaku Co., Ltd.). The Rmerge, which indicates the quality of the data, was 0.097 between 40.0-1.5 angstrom resolution, and 0.260 between 1.55-1.50 angstrom resolution in the most outer shell. The completeness of the data was 99.2% between 40.0-1.5 angstrom resolution, and 99.9% between 1.55-1.50 angstrom resolution in the most outer shell. […]

B1: aldolase derived from Pseudomonas taetrolens ATCC4683 (PtALD), wild-type (enzyme)
chain: MSLPGSRIYPSPPQAPRSLLDAFQNVVTPHISDNLGRHIGARGLTRYNHTGKLVGTALTVKTRPGDNLYIYKALTLIEPGHVLVIDAQGDATNAVIGELIKLYAQQRGCVGFVVDGAIRDVASFEDTPCYARSVVHCGPYKSGPGEINVPVSIGGMIINPGDIIVGDEDGLVAFSPDHAEQVLVKAREHDAHEQQVKAEIATGAIDQSWLDKVLEKAGLAN
notes: It was purified and crystallised; The asymmetric unit contains one subunit; also called IHOG aldolase; recombinant PtALD
B1: binds.

From US20050244939A1 (AJINOMOTO, published 2005)
